# From patent US20140087995A1 (published 2014)
# Read-outs that look alike come from different tables or passages of the source. Numbered stars: 1 amine (or outer) side, 2 acyl side, 3 side chain; on linkers, the order of the positions; unused ones are H or OH. Bridge positions count the residues as written; N and C are the ends. Side chains are listed from the residue outwards. Ends that are not written are not given here. * marks the point of attachment. C20 diacid = O=C(O)CCCCCCCCCCCCCCCCCCC(=O)*; γGlu = O=C(O)[C@H](CCC(=O)[*:2])N[*:1]
# T1: human amylin receptor (amylin 3(a) receptor: human calcitonin receptor coexpressed with RAMP-3) (human, UniProt P30988 25-474; O60896 24-148)
# T1 sequence (looked up) 1: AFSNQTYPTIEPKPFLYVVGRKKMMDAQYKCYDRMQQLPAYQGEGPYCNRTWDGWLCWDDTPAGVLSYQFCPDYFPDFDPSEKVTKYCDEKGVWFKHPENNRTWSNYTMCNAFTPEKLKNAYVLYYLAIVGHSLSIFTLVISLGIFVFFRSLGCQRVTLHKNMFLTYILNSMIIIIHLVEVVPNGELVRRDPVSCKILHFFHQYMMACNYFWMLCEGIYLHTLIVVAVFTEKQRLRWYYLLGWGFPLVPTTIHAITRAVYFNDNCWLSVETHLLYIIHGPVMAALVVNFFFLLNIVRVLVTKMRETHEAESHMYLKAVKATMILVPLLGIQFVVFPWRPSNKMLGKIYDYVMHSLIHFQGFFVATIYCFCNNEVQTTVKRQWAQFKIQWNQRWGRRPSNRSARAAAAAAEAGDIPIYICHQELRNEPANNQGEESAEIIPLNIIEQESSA
# T1 sequence (looked up) 2: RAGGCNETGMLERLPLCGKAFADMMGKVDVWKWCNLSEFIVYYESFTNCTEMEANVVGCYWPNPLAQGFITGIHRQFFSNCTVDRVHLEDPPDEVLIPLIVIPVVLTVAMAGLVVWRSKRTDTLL
# T2: human calcitonin receptor (human, UniProt P30988 25-474)
# T2 sequence (looked up): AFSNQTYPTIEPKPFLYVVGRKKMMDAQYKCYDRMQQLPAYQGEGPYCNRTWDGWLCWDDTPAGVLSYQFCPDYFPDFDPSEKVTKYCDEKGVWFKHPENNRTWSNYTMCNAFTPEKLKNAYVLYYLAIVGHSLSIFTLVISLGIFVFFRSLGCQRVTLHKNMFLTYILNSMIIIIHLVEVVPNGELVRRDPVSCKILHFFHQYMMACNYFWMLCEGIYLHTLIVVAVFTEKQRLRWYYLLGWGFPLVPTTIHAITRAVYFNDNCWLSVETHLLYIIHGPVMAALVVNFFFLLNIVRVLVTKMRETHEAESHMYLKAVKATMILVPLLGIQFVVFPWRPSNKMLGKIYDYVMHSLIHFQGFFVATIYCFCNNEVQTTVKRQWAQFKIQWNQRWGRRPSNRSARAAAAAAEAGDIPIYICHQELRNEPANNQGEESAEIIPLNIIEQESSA
# T3: human amylin 3(a) receptor (human calcitonin receptor + RAMP-3) (human, UniProt P30988 25-474; O60896 24-148, limits assumed)
# T3 sequence (looked up) 1: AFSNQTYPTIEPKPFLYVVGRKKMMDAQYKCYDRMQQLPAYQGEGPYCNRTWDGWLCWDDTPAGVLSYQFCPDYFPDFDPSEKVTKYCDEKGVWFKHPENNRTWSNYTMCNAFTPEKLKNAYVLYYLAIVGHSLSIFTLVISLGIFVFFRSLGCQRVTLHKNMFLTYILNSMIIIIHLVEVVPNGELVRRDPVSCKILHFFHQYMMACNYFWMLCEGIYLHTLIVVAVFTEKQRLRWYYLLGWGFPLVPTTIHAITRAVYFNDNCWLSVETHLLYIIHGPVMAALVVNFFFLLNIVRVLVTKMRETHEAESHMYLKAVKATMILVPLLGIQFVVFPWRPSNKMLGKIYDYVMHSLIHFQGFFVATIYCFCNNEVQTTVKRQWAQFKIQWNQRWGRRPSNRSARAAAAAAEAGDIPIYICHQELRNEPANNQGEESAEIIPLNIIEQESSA
# T3 sequence (looked up) 2: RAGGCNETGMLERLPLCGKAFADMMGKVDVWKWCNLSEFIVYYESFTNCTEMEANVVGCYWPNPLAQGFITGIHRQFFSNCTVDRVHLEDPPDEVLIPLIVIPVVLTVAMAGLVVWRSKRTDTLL
# T4: human calcitonin receptor (human, UniProt P30988 25-474)
# T4 sequence (looked up): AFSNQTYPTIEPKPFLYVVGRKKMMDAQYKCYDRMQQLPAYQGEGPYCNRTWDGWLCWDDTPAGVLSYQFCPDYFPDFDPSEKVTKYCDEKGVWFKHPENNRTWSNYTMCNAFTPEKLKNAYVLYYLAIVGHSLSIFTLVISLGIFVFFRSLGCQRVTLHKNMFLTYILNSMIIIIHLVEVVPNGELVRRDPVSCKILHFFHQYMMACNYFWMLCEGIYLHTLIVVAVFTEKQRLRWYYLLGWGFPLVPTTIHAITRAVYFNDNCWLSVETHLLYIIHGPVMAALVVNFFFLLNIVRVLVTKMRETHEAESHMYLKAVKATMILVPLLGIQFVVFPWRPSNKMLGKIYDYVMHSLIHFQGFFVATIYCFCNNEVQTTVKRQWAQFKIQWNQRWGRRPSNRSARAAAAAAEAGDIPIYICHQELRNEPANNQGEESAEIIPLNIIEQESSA
# T5: human amylin receptor (amylin 3(a) receptor: human calcitonin receptor with RAMP-3) (human, UniProt P30988 25-474; O60896 24-148, limits assumed)
# T5 sequence (looked up) 1: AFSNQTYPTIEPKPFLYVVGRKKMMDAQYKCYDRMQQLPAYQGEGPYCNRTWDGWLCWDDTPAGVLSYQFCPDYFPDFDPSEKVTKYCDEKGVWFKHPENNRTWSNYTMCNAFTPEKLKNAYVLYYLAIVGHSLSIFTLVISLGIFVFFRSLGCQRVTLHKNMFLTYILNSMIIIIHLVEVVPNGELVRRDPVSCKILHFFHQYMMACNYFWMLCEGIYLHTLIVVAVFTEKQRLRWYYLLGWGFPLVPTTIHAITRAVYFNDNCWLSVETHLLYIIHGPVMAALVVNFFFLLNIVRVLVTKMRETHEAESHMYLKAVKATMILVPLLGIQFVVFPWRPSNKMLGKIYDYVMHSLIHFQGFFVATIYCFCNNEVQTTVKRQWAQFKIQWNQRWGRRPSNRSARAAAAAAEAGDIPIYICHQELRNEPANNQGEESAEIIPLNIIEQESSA
# T5 sequence (looked up) 2: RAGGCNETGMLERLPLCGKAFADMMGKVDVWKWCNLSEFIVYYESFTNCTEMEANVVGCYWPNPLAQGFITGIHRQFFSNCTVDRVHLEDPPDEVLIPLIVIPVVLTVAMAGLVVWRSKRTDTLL
# T6: human calcitonin receptor (human, UniProt P30988 25-474)
# T6 sequence (looked up): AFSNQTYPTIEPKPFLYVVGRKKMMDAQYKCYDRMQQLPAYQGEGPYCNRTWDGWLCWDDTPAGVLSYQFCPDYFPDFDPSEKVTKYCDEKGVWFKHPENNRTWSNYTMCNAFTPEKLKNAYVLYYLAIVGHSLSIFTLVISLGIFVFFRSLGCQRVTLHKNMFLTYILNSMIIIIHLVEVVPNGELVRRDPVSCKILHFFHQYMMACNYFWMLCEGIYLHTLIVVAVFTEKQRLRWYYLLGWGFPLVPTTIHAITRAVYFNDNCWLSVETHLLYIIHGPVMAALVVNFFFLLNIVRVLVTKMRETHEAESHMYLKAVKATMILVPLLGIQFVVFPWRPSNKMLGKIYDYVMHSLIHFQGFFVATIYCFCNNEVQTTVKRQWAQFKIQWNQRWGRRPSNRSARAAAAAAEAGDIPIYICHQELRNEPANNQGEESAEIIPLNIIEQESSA
# Columns and labels:
# [1] = molecular target: T1, human amylin receptor (amylin 3(a) …); assay: cell-based or functional assay
# [2] = molecular target: T2, human calcitonin receptor; assay: cell-based or functional assay
# [3] = molecular target: T1, human amylin receptor (amylin 3(a) …); assay: SPA competition against 125I-rat amylin, membranes of BHK amylin 3(a)/CRE-luc cells (Assay V)
# Experimental: (§1) The binding assay was performed using scintillation proximity assay (SPA) beads (RPNQ0001) from PerkinElmer and cell membranes from the Amylin 3(a)/CRE-luc cells (as described in Assay (II)) were used. Membranes were prepared in the following way; the cells were rinsed with PBS and incubated with Versene for approximately 5 min before harvesting. The cells were flushed with PBS and the cell-suspension was centrifuged for 5 min at 1000 rpm. Cells were homogenized (ultrathurrax) in a buffer containing 20 mM Na-HEPES and 10 mM EDTA (pH 7.4) and centrifuged at 20.000 rpm for 15 min. The resulting pellet was resuspended, homogenized and centrifuged (20.000 rpm, 15 min) in a buffer containing 20 mM Na-HEPES and 0.1 mM EDTA (pH 7.4, buffer 2). The resulting pellet was resuspended in buffer 2 and protein concentration was measured (BCA protein Assay, Pierce). The homogenate was kept cold during the whole procedure. The membranes were kept at −80° C. until use. The assay was performed in a 384 well Optiplate (PerkinElmer) in a total volume of 40 ul. Membranes were mixed with SPA beads. Final concentration of membranes 35 ng/μL final and SPA beads was 0.05 mg/well. Test-compounds were dissolved in DMSO and further diluted in assay buffer (50 mM Hepes, pH 7.4, 1 mM CaCl2, 5 mM MgCl₂, 0.1% OA and 0.02% Tween20). […] The final mixture was incubated with shaking at 400 rpm for 120 min at 25° C. prior to centrifugation (1500 rpm, 10 min). Samples were analyzed on TopCounter™ (Packard). The IC₅₀ was calculated using (one site binding competition analysis) GraphPad Prism5 as a measure of receptor affinity.
# [4] = molecular target: T3, human amylin 3(a) receptor (human …); assay: cell-based or functional assay
# [5] = molecular target: T4, human calcitonin receptor; assay: cell-based or functional assay; remark: listed apart in the source
# [6] = molecular target: T3, human amylin 3(a) receptor (human …); assay: SPA competition binding, membranes of BHK cells with human calcitonin receptor + RAMP-3, displacement of 125I-rat amylin (Assay V)
# Experimental: as §1
# [7] = molecular target: T5, human amylin receptor (amylin 3(a) …); assay: cell-based or functional assay
# [8] = molecular target: T6, human calcitonin receptor; assay: cell-based or functional assay; remark: listed apart in the source
binder,measurement,setting,value
K([γGlu-γGlu-C20 diacid])CNTATCATQRLAEFLRHSSNNPGAILSSTNVGPETY-NH2 (disulfide 2-7),hAmylin-R funct. EC50 (pM),[1],5170 pM
same,Ratio hCT/hAmylin funct.,[2],17.3
same,hCTR funct. EC50 (pM),[2],89600 pM
same,IC50,[3],1.19 nM
"{C20 diacid-γGlu}-KCNTATCATQRLAEFLRHSSPNFGPILPPTNVGSNTP-NH2 (disulfide 2-7; SMILES CC[C@H](C)[C@H](NC(=O)[C@@H]1CCCN1C(=O)CNC(=O)[C@H](Cc1ccccc1)NC(=O)[C@H](CC(N)=O)NC(=O)[C@@H]1CCCN1C(=O)[C@H](CO)NC(=O)[C@H](CO)NC(=O)[C@H](Cc1c[nH]cn1)NC(=O)[C@H](CCCNC(=N)N)NC(=O)[C@H](CC(C)C)NC(=O)[C@H](Cc1ccccc1)NC(=O)[C@H](CCC(=O)O)NC(=O)[C@H](C)NC(=O)[C@H](CC(C)C)NC(=O)[C@H](CCCNC(=N)N)NC(=O)[C@H](CCC(N)=O)NC(=O)[C@@H](NC(=O)[C@H](C)NC(=O)[C@@H]1CSSC[C@H](NC(=O)[C@H](CCCCN)NC(=O)CC[C@H](NC(=O)CCCCCCCCCCCCCCCCCCC(=O)O)C(=O)O)C(=O)N[C@@H](CC(N)=O)C(=O)N[C@@H]([C@@H](C)O)C(=O)N[C@@H](C)C(=O)N[C@@H]([C@@H](C)O)C(=O)N1)[C@@H](C)O)C(=O)N[C@@H](CC(C)C)C(=O)N1CCC[C@H]1C(=O)N1CCC[C@H]1C(=O)N[C@H](C(=O)N[C@@H](CC(N)=O)C(=O)N[C@H](C(=O)NCC(=O)N[C@@H](CO)C(=O)N[C@@H](CC(N)=O)C(=O)N[C@H](C(=O)N1CCC[C@H]1C(N)=O)[C@@H](C)O)C(C)C)[C@@H](C)O, disulfide and C-terminal amide as told for human amylin and the amide resins of the synthesis; also called compound 4)",hAmylin-R funct. EC50 (pM),[4],60 pM
same,Ratio hCT/hAmylin funct.,[5],1.2
same,IC50,[6],0.321 nM
K([γGlu-γGlu-C20 diacid])CNTATCATQRLAEFLRHSSPNFGAIPSSTNVGPNTF-NH2 (disulfide 2-7; N-terminus assumed; SMILES CC[C@H](C)[C@H](NC(=O)[C@H](C)NC(=O)CNC(=O)[C@H](Cc1ccccc1)NC(=O)[C@H](CC(N)=O)NC(=O)[C@@H]1CCCN1C(=O)[C@H](CO)NC(=O)[C@H](CO)NC(=O)[C@H](Cc1c[nH]cn1)NC(=O)[C@H](CCCNC(=N)N)NC(=O)[C@H](CC(C)C)NC(=O)[C@H](Cc1ccccc1)NC(=O)[C@H](CCC(=O)O)NC(=O)[C@H](C)NC(=O)[C@H](CC(C)C)NC(=O)[C@H](CCCNC(=N)N)NC(=O)[C@H](CCC(N)=O)NC(=O)[C@@H](NC(=O)[C@H](C)NC(=O)[C@@H]1CSSC[C@H](NC(=O)[C@@H](N)CCCCNC(=O)CC[C@H](NC(=O)CC[C@H](NC(=O)CCCCCCCCCCCCCCCCCCC(=O)O)C(=O)O)C(=O)O)C(=O)N[C@@H](CC(N)=O)C(=O)N[C@@H]([C@@H](C)O)C(=O)N[C@@H](C)C(=O)N[C@@H]([C@@H](C)O)C(=O)N1)[C@@H](C)O)C(=O)N1CCC[C@H]1C(=O)N[C@@H](CO)C(=O)N[C@@H](CO)C(=O)N[C@H](C(=O)N[C@@H](CC(N)=O)C(=O)N[C@H](C(=O)NCC(=O)N1CCC[C@H]1C(=O)N[C@@H](CC(N)=O)C(=O)N[C@H](C(=O)N[C@@H](Cc1ccccc1)C(N)=O)[C@@H](C)O)C(C)C)[C@@H](C)O),hAmylin-R funct. EC50 (pM),[7],216 pM
same,Ratio hCT/hAmylin funct.,[8],9.9 ratio
same,hCTR funct. EC50 (pM),[8],2140 pM
